Experimental findings from patent US20120322150 are described below.

For data set [1], the target named is GST-hsGSK3β (UniProt P49841).
In data set [2] the target is T1, GST-BIN2 (UniProt Q39011).
T1 sequence: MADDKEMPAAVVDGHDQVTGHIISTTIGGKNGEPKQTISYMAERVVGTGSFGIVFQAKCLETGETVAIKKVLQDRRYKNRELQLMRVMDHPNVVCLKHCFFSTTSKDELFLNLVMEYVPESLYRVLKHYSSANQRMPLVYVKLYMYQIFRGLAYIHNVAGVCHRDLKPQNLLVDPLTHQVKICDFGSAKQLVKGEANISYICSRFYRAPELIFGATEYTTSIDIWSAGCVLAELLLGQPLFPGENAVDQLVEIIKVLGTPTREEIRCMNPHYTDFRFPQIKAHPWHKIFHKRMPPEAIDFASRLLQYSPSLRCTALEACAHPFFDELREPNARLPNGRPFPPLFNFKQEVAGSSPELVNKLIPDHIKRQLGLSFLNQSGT

GST-hsGSK3β, sequence (P49841 whole entry, looked up): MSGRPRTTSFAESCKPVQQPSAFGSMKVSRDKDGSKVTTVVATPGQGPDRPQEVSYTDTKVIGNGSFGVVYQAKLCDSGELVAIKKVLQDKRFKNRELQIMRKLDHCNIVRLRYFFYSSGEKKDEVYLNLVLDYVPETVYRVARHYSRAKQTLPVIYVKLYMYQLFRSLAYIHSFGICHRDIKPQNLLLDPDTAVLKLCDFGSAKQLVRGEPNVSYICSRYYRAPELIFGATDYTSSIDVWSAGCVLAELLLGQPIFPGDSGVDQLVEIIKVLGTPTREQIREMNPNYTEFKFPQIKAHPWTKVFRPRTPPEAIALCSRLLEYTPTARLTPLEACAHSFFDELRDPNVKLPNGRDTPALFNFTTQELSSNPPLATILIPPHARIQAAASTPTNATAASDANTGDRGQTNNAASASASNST

On to MBP-hsPPP1cc, for which the “phosphorylation status of tyrosine 216 of hsGSK3β (immunoblot with anti-phospho-tyrosine 216 antibody)” value in data set [1] is listed as “human protein phosphatase 1 gamma (PP1γ) dephosphorylates tyrosine 216 of human GSK3 beta in vitro”.
Consider PP1 purified from E. coli, for which, in data set [2], the “dephosphorylation of BIN2 tyrosine200” value is “The presence of PP1 increased dephosphorylation of BIN2 tyrosine200”.
